Assay results reported in patent US20220089743A1 (Chugai, published 2022).
Residue numbers refer to the chain shown, from its start. Like-named read-outs stand apart in the source and are kept apart here.

T1: HLA-DR on Ba/F3 cells (human, UniProt P01903 26-216; P79483 30-227, limits assumed)
T1 construct: whole, on cells; also called Ba/F3-HLA-DR
T1 MHC II alpha: not shown
T1 MHC II beta: not shown

T2: HLA-DQ5.1 on Ba/F3 cells (human, limits assumed)
T2 construct: whole, on cells; also called Ba/F3-HLA-DQ5.1
T2 MHC II alpha: not shown
T2 MHC II beta: not shown

T3: HLA-DQ6.3 on Ba/F3 cells (human, UniProt P01920 33-230, limits assumed)
T3 construct: whole, on cells; also called Ba/F3-HLA-DQ6.3
T3 MHC II alpha: not shown
T3 MHC II beta: not shown

T4: HLA-DQ7.3 on Ba/F3 cells (human, UniProt P01909 24-216; P01920 33-230, limits assumed)
T4 construct: whole, on cells; also called Ba/F3-HLA-DQ7.3
T4 MHC II alpha: not shown
T4 MHC II beta: not shown

T5: HLA-DQ2.2 on Ba/F3 cells (human, UniProt P01909 24-216, limits assumed)
T5 construct: whole, on cells; also called Ba/F3-HLA-DQ2.2
T5 MHC II alpha: not shown
T5 MHC II beta: not shown

T6: HLA-DQ8 on Ba/F3 cells (human, UniProt P01909 24-216; P01920 33-230, limits assumed)
T6 construct: whole, on cells; also called Ba/F3-HLA-DQ8
T6 MHC II alpha: not shown
T6 MHC II beta: not shown

B1: DQN0344H1013/L0620//DQN0385H1352/L0681-F6 (bispecific antibody)
heavy 1: QVQLVESGGGVVQPGRSLRLSCAASGFTFSSAYWMVWVRQAPGQGLEWMGAVYGGSDTTYYAKWTEGRFTISRDTSKNTLYLQMNSLRAEDTAVYYCAREPLNYYYYGELNVWGQGTLVTVSSASTKGPSVFPLAPSSKSTSGGTAALGCLVKDYFPEPVTVSWNSGALTSGVHTFPAVLKSSGLYSLSSVVTVPSSSLGTQTYICNVNHKPSNTKVDKRVEPKSCDKTHTCPPCPAPELRRGPSVFLFPPKPKDTLMISRTPEVTCVVVDVSHEDPEVKFNWYVDGVEVHNAKTKPREEQYNSTYRVVSVLTVLHQDWLNGKEYKCKVSNKALPAPIEKTISKAKGQPREPQVYTLPPSREEMTKNQVSLTCLVKGFYPSDIAVEWESNGQPENNYKTTPPYLDSDGSFFLYSKLTVDKSRWQEGNVFSCSVLHEALHAHYTREELSLSP
light 1: DIQMTQSPSSLSASVGDRVTITCQATENIYSGLAWYQQKPGKAPKLLIYYVSTLAYGIPARFSGSGSGTDFTLTISSLEPEDFAVYYCQTYEDVSAVTFGQGTKVEIKRTVAAPSVFIFPPSDEQLKSGTAEVVCLLNNFYPREAKVQWKVDNALQSGNSEESVTEQDSKDSTYSLSSTLTLSKADYEKHKVYACEVTHQGLSSPVTKSFNRGEC
heavy 2: QVQLVESGGGVVQPGRSLRLSCAASGFEFSEWYFMSWVRQAPGKGLEWVASIDTGSGSIDYAEWVEGRFTISRDNSKNTLYLQMNSLRAEDTAVYYCARDIGIDYNFWGPGTLVTVSSASTKGPSVFPLAPSSKSTSGGTAALGCLVEDYFPEPVTVSWNSGALTSGVHTFPAVLESSGLYSLSSVVTVPSSSLGTKTYICNVNHKPSNTKVDKRVEPKSCDKTHTCPPCPAPELRRGPSVFLFPPKPKDTLMISRTPEVTCVVVDVSHEDPEVKFNWYVDGVEVHNAKTKPREEQYNSTYRVVSVLTVLHQDWLNGKEYKCKVSNKALPAPIEKTISKAKGQPREPQVYTLPPSRKEMTKNQVSLTCLVKGFYPSDIAVEWESNGQPENNYKTTPPYLDSDGSFFLYSKLTVDKSRWQQGNVFSCSVLHEALHAHYTRKELSLSP
light 2: DIQMTQSPSSLSASVGDRVTITCQTTQSISSYLNWYQQKPGQPPKLLIYYASTKAEGIPARFSGSGLGTDFTLTISSLEPEDFAVYYCHYGISKVSFGQGTKVEIKRTVAAPSVFIFPPSDEQLKSGTAKVVCLLNNFYPREAKVQWKVDNALQSGNSKESVTEQDSKDSTYSLSSTLTLSKADYEKHKVYACEVTHQGLSSPVTKSFNRGEC
B2: DQN0344H1013/L0620//DQN0385H1353/L0681-F6 (bispecific antibody)
heavy 1: B1 heavy 1
light 1: B1 light 1
heavy 2: B1 heavy 2 with E28T, S30A
light 2: B1 light 2

Assays:
[1] = target: HLA-DQ2.5 on IHW09023 cells loaded with gamma 4d gliadin peptide (human; wheat); assay: cell-based or functional assay
[2] = target: HLA-DQ2.5 on IHW09023 cells loaded with gamma 3 gliadin peptide (human; wheat); assay: cell-based or functional assay
[3] = target: HLA-DQ2.5 on IHW09023 cells loaded with BC hordein peptide (human; barley); assay: cell-based or functional assay
[4] = target: HLA-DQ2.5 on IHW09023 cells loaded with omega1/2 gliadin peptide (human; wheat); assay: cell-based or functional assay
[5] = target: HLA-DQ2.5 on IHW09023 cells loaded with gamma 1 gliadin peptide (human; wheat); assay: cell-based or functional assay
[6] = target: HLA-DQ2.5 on IHW09023 cells loaded with gamma 2 gliadin peptide (human; wheat); assay: cell-based or functional assay
[7] = target: HLA-DQ2.5 on IHW09023 cells loaded with gamma 4a gliadin peptide (human; wheat); assay: cell-based or functional assay
[8] = target: HLA-DQ2.5 on IHW09023 cells loaded with 33 mer gliadin peptide (human; wheat); assay: cell-based or functional assay
[9] = target: T7, HLA-DP on Ba/F3 cells (human, UniProt P20036 29-222; P04440 30-225, limits assumed); assay: FACS, Ba/F3 cells; raw MFI
T7 construct: whole, on cells; also called Ba/F3-HLA-DP

[10] = target: T1, HLA-DR on Ba/F3 cells; assay: FACS, Ba/F3 cells; raw MFI
[11] = target: T2, HLA-DQ5.1 on Ba/F3 cells; assay: FACS, Ba/F3 cells; raw MFI
[12] = target: T3, HLA-DQ6.3 on Ba/F3 cells; assay: FACS, Ba/F3 cells; raw MFI
[13] = target: T4, HLA-DQ7.3 on Ba/F3 cells; assay: FACS, Ba/F3 cells; %MFI with IC17dK 0 and DQN0139bb 100
[14] = target: T8, HLA-DQ7.5 on Ba/F3 cells (human, UniProt P01909 24-216; P01920 33-230, limits assumed); assay: as above
T8 construct: whole, on cells; also called Ba/F3-HLA-DQ7.5

[15] = target: T5, HLA-DQ2.2 on Ba/F3 cells; assay: as above
[16] = target: T6, HLA-DQ8 on Ba/F3 cells; assay: as above
[17] = target: T9, HLA-DQ2.5 on Ba/F3 cells (human, UniProt P01909 24-216, limits assumed); assay: as above
T9 construct: whole, on cells; MHC class II without a fused peptide; also called Ba/F3-HLA-DQ2.5

[18] = target: T4, HLA-DQ7.3 on Ba/F3 cells; assay: as above
[19] = target: T8, HLA-DQ7.5 on Ba/F3 cells; assay: as above; remark: listed apart in the source
[20] = target: T5, HLA-DQ2.2 on Ba/F3 cells; assay: as above
[21] = target: T6, HLA-DQ8 on Ba/F3 cells; assay: as above
[22] = target: T9, HLA-DQ2.5 on Ba/F3 cells; assay: as above; remark: listed apart in the source

T7 sequence (P20036 29-222 limits assumed, chain 1 of 4, other chains not shown): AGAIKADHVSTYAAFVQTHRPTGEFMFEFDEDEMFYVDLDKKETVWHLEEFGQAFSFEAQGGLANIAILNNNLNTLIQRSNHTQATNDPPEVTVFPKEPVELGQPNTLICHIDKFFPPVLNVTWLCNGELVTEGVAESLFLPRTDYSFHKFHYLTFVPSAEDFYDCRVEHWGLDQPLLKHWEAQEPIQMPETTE
T7 sequence (P04440 30-225 limits assumed, chain 2 of 4, other chains not shown): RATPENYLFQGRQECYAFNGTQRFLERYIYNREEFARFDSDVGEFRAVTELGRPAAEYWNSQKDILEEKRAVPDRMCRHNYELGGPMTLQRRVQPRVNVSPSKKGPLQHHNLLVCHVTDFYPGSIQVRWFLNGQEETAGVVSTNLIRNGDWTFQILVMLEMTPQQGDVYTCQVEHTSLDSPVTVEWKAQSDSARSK

| Binder | IC50, γ4d gliadin TCR, 100 µM γ4d gliadin [1] | IC50, γ3 gliadin TCR, 100 µM γ3 gliadin [2] | IC50, BC hordein TCR, 250 nM BC hordein [3] | IC50, ω1 gliadin TCR, 25 µM ω1/2 gliadin [4] | IC50, ω2 gliadin TCR, 250 nM ω1/2 gliadin [4] | IC50, γ1 gliadin TCR, 250 nM γ1 gliadin [5] | IC50, γ2 gliadin TCR, 250 nM γ2 gliadin [6] | IC50, γ4a gliadin TCR, 25 µM γ4a gliadin [7] | IC50, α1a gliadin TCR, 250 nM 33mer gliadin [8] | IC50, α1b gliadin TCR, 250 nM 33mer gliadin [8] | IC50, α2 gliadin TCR, 250 nM 33mer gliadin [8] | binding result [9] | binding result [10] | binding result [11] | binding result [12] | further results |
| --- | --- | --- | --- | --- | --- | --- | --- | --- | --- | --- | --- | --- | --- | --- | --- | --- |
| B1 | 3.15 ng/mL | 3.15 ng/mL | 11.6 ng/mL | 1.88 ng/mL | 0.27 ng/mL | 1.71 ng/mL | 279 ng/mL | 1730 ng/mL | 0.26 ng/mL | 1.13 ng/mL | 0.38 ng/mL | no binding (tested: 0.05 ug/mL) | no binding (tested: 0.05 ug/mL) | no binding (tested: 0.05 ug/mL) | no binding (tested: 0.05 ug/mL) | binding result [13]: no binding (tested: 0.05 ug/mL); binding result [14]: no binding (tested: 0.05 ug/mL); binding result [15]: no binding (tested: 0.05 ug/mL); binding result [16]: no binding (tested: 0.05 ug/mL); binding result [17]: no binding (tested: 0.05 ug/mL) |
| B2 | 2.06 ng/mL | 2.29 ng/mL | 8.78 ng/mL | 1.17 ng/mL | 0.17 ng/mL | 0.56 ng/mL | 100 ng/mL | 1250 ng/mL | 0.29 ng/mL | 1.13 ng/mL | 0.34 ng/mL | no binding (tested: 0.05 ug/mL) | no binding (tested: 0.05 ug/mL) | no binding (tested: 0.05 ug/mL) | no binding (tested: 0.05 ug/mL) | binding result [18]: no binding (tested: 0.05 ug/mL); binding result [19]: no binding (tested: 0.05 ug/mL); binding result [20]: no binding (tested: 0.05 ug/mL); binding result [21]: no binding (tested: 0.05 ug/mL); binding result [22]: no binding (tested: 0.05 ug/mL) |
